The record followed here is patent publication US9157067B2, “Pluripotent cells from mammalian late epiblast layer” (priority 2006, dated 2015).

Test [1] has as its system rat epiblast layers. Briefly: Derivation of EpiSC lines from rat epiblast layers. The class given is cell-based. An excerpt:
The hypothesis that Activin and FGF signalling in pluripotency are conserved in mammalian development is supported by the ability of Activin/Nodal signalling to maintain long-term pluripotency of both human ESCs and mouse EpiSCs. As a further test of this hypothesis, we attempted to derive EpiSCs from rats, a species from which embryonic stem cell derivation has been problematic. Following the method we established in the mouse, epiblast layers were dissected from rat embryos at pre-gastrula stages (E 7.5-8.5) and grown on fibronectin-coated or FBS coated plates in CDM supplemented with Activin and FGF. […] Nevertheless, four EpiSC lines were derived out of 14 embryos of the Wistar strain and 1 EpiSC line was derived out of 20 embryos from the Sprague-Dawley strain using CDM supplemented with Activin alone.

For test [2], the system named is Rat EpiSCs. Briefly: Oct-4 immunostaining of rat EpiSCs grown in supplemented CDM. Type of test: cell-based. Particulars: after one week in CDM; 5B431542 10 uM; BMP4 10 ng/ml + 5B431542 10 uM; Activin 10 ng/ml + Noggin 100 ng/ml. How it is done:
hESCs, mouse ESCs or EpiSCS were fixed for 20 minutes at 4° C. in 4% paraformaldehyde (PFA) and then washed three times in PBS. Cells were incubated for 20 minutes at room temperature in PBS containing 10% goat serum (Serotec) and subsequently incubated over night at 4° C. with primary antibody diluted in 1% goat serum in PBS as follows: SSEA-3 (1:100, Santa Cruz), SSAE-1 (1:25, gift from PW Andrews), Tra-1-60 (1:100, Santa CruZ), Oct-4 (1:100, SantaCruz), Sox2 (1:100, Abeam ab15830), Nanog (1:100, Abeam), Blirnpl (Abeam). Cells were then washed three times in PBS and incubated with fluorescein-Isothiocyanate-conjugated anti-mouse IgG or IgM (Sigma 1:200 in 1% goat serum in PBS) or rat IgM (Jackson laboratory 1:300 in goat serum in PBS) or rabbit IgG (Jackson laboratory 1:200 in donkey serum in PBS) for two hours at room temperature. Unbound secondary antibody was removed by 3 washes in PBS. Hoechst 33258 was added to the first wash (Sigma 1:10000).
Rat EpiSCs were grown in CDM supplemented in the presence of Activin (10 ng/ml), 5B431542 (10 uM), BMP4 10 ng/ml+5B431542 (10 uM) or Activin (10 ng/ml)+Noggin (IOOng/ml). After one week, the expression of the pluripotency marker Oct-4 was analysed using immunostaining. […] Similar results were obtained with mouse EpiSCs.

Where [3] appears, read: Rat Sprague-Dawley, 8.5 d.p.c, 37° C., fibro.

B1: FGF4: growth factor added to rat epiblast cultures (protein, UniProt P08620 31-206, looked up)
Fibroblast growth factor 4: APTAPNGTLEAELERRWESLVALSLARLPVAAQPKEAAVQSGAGDYLLGIKRLRRLYCNVGIGFHLQALPDGRIGGAHADTRDSLLELSPVERGVVSIFGVASRFFVAMSSKGKLYGSPFFTDECTFKEILLPNNYNAYESYKYPGMFIALSKNGKTKKGNRVSPTMKVTHFLPRL
On to B1, for which, in test [1] (addition to CDM supplemented with Activin), the “differentiation of early epiblast cultures” value is “induced differentiation”.

B2: Activin: activin agonist growth factor, dimeric polypeptide stimulating the Activin/Nodal pathway (protein, UniProt P08476 311-426, looked up)
Inhibin beta A chain: GLECDGKVNICCKKQFFVSFKDIGWNDWIIAPSGYHANYCEGECPSHIAGTSGSSLSFHSTVINHYRMRGHSPFANLKSCCVPTKLRPMSMLYYDDGQNIIKKDIQNMIVEECGCS
Take B2: in test [1] (setting [3]), the Lines derived worked out at 1 and the Rate % was 5%. Further, the Rate % in test [1] (Rat Water (Wistar), 8.5 d.p.c, 38° C., FCS) was determined as 35%.

B3: Noggin: natural BMP inhibitor (protein, UniProt Q13253 28-232, looked up)
Noggin: QHYLHIRPAPSDNLPLVDLIEHPDPIFDPKEKDLNETLLRSLLGGHYDPGFMATSPPEDRPGGGGGAAGGAEDLAELDQLLRQRPSGAMPSEIKGLEFSEGLAQGKKQRLSKKLRRKLQMWLWSQTFCPVLYAWNDLGSRFWPRYVKVGSCFSKRSCSVPEGMVCKPSKSVHLTVLRWRCQRRGGQRCGWIPIQYPIISECKCSC
As to B3, the “expression of the pluripotency marker Oct-4” value in test [2] was “did not decrease expression of Oct-4”.
